According to paper PMC11723585:

Target: endogenous knock-in V5-Halo-RXRα (human (endogenous in U2OS)) (UniProt P19793)
Sequence of UniProt P19793 (P19793 whole entry): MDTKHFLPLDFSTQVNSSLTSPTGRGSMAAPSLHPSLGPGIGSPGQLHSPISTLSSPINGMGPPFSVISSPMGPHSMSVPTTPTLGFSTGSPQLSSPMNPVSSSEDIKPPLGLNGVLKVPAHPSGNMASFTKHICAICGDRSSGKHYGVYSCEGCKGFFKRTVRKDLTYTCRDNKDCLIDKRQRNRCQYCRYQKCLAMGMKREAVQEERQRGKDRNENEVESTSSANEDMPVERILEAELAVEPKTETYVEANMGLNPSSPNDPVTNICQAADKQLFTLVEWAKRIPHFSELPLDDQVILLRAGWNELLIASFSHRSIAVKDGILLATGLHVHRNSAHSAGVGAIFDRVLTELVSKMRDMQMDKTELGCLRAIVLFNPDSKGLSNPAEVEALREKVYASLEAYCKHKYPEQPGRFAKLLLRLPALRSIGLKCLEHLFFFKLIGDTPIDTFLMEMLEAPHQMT

**Q.** With “RARα^RR-SNAPf-3xFLAG (from UniProt P10276 1-462) (natural protein)” as the substance, how does the chromatin-bound fraction of DR trajectories (f bound,DR) of RARα^RR-SNAP in Halo-RXRα knock-in U2OS cells read?
**A.** 7.5%

**Q.** And the chromatin-bound fraction of PAPA trajectories (f bound,PAPA) of RARα^RR-SNAP in Halo-RXRα knock-in U2OS cells?
**A.** 11.1%
